For one molecule, fluorescence reading (name not given) results are on record in patent publication US20240270831A1.

Assay [1] addresses purchased CTNI antigen (UniProt P19429). Kind of assay: fluorescent chromatography card, sandwich; coated on T line; 18 ng/ml.
Assay [2] has the same target. Kind of assay: fluorescent chromatography card, sandwich; coated on T line; 0.08 ng/ml.
Assay [3] has the same target. As to the kind of experiment: fluorescent chromatography card, sandwich; coated on T line; 10.5 ng/ml.
For assay [4] the target is unchanged. As to the kind of experiment: fluorescent chromatography card, sandwich; coated on T line; 0.15 ng/ml.
For assay [5] the target is unchanged. As to the kind of experiment: fluorescent chromatography card, sandwich; coated on T line; 0 ng/ml (blank, no antigen).
Assay [6] shares this target. Kind of assay: fluorescent chromatography card, sandwich; coated on T line; 0.7 ng/ml.
For assay [7] the target is unchanged. As to the kind of experiment: fluorescent chromatography card, sandwich; coated on T line; 0.04 ng/ml.
For assay [8] the target is unchanged. As to the kind of experiment: fluorescent chromatography card, sandwich; coated on T line; 3 ng/ml.
For assay [9] the target is unchanged. As to the kind of experiment: fluorescent chromatography card, sandwich; coated on T line, other CTNI antibody on fluorescent microspheres; 50 ng/ml.

Chain of UniProt P19429 (P19429 2-210 limits assumed): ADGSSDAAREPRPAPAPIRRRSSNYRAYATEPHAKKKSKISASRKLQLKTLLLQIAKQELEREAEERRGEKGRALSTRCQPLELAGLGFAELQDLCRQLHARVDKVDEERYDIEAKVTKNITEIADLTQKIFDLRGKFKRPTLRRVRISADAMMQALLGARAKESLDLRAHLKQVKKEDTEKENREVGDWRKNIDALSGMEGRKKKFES

B1: Anti-cTnI-21C5 monoclonal antibody (antibody, from another filing, V domains shown)
VH: EVQLQQSGPELVKPGASVKMSCKASGYSFTLYVVHWVKQKPGQGLEWIGYIQPYLDGTRYNEKFKGKATLTVDKSSSTAFMELSSLTSEDSAVYYCARTGYGGYGLAWLAYWGQGTLVTVSA
VL: QAVVIQESALTTSPGETVTLTCRSSSGAATTSQYANWVQEKPDHLFTGLIGGSNNRAPGVPARFSGSLIGDKAALTITGAQTEDEAIYFCAIVYSNHWVFGGGTKLTVLG
For B1, the fluorescence reading (name not given) with purchased CTNI antigen [1] worked out at 0.746; with purchased CTNI antigen [2] it was 0.02; with purchased CTNI antigen [3], 0.45; with purchased CTNI antigen [4] it was 0.026; with purchased CTNI antigen [5], 0.015; in the assay with purchased CTNI antigen [6], 0.045. Also, the fluorescence reading (name not given) in the assay with purchased CTNI antigen [7] came out at 0.017; in the assay with purchased CTNI antigen [8] it was 0.18; in the assay with purchased CTNI antigen [9], 2.17.
